Reference: patent US20180140673A1

How the values were obtained:
[1] = molecular target: FGFR1c receptor/BKL complex on differentiated mouse 3T3-L1 adipocytes (mouse) (UniProt P16092); assay: cell-based or functional assay
[2] = molecular target: FGF receptor/BKL complex on HEK293 cells overexpressing human beta-klotho (BKL) (human) (UniProt Q86Z14); assay: cell-based or functional assay
Chain of FGF receptor/BKL complex on HEK293 cells overexpressing human beta-klotho (BKL) (human) (Q86Z14 whole entry, one chain of several): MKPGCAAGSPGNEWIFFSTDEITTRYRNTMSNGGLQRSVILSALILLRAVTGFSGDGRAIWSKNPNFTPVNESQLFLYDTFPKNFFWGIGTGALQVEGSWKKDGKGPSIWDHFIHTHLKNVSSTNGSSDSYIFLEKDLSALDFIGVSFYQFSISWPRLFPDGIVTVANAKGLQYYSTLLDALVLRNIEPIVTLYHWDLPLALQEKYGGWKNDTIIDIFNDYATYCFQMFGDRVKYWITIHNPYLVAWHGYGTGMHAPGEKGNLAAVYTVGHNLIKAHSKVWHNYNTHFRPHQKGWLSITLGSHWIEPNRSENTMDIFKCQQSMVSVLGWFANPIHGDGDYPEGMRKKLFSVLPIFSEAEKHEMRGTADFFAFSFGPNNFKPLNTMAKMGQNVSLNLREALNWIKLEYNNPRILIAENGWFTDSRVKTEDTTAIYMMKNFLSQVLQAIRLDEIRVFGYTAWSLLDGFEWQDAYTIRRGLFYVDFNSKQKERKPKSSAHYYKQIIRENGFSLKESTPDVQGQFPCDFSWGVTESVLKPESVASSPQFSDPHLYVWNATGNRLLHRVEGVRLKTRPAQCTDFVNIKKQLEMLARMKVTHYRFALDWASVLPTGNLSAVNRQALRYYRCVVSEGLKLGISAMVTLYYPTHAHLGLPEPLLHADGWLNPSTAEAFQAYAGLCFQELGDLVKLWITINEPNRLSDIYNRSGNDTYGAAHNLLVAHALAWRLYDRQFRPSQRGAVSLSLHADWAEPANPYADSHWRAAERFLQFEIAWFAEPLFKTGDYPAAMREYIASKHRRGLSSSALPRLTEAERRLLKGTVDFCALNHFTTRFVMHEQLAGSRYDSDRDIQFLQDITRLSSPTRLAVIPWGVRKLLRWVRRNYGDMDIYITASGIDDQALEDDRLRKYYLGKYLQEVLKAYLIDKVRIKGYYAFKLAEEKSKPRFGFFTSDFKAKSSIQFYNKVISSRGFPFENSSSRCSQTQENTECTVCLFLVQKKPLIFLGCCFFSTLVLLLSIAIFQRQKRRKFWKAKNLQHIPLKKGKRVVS

Chain of S{Beta-180}-2-aminoethylsulfanyl-Ala[Gln121,Leu168,Cys180,des181]FGF21 (Q9NSA1 other isoform, or with tags, fused parts or gaps limits assumed): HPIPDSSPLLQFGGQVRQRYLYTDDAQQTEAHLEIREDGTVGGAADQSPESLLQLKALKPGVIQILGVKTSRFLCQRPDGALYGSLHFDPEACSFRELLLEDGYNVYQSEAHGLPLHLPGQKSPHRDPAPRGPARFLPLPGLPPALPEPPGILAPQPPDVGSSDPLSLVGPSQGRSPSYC
Chain of S{Beta-181}-2-aminoethylsulfanyl-Ala[Gln121,Leu168,Cys181]FGF21 (Q9NSA1 other isoform, or with tags, fused parts or gaps limits assumed): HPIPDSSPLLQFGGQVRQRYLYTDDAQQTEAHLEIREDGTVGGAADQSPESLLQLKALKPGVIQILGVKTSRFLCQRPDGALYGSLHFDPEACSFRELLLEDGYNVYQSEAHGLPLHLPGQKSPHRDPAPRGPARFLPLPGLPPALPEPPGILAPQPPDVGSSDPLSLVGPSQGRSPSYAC
Chain of S{Beta-180}-2-aminoethylsulfanyl-Ala[Gln121,Leu168,Cys180]FGF21 (Q9NSA1 other isoform, or with tags, fused parts or gaps limits assumed): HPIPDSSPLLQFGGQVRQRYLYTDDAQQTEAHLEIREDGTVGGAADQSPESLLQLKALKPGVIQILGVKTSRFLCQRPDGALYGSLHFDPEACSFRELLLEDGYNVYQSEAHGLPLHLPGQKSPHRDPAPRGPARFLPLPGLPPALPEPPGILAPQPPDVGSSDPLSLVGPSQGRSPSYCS
Chain of FGFR1c receptor/BKL complex on differentiated mouse 3T3-L1 adipocytes (mouse) (P16092 22-822, chain 1 of 2): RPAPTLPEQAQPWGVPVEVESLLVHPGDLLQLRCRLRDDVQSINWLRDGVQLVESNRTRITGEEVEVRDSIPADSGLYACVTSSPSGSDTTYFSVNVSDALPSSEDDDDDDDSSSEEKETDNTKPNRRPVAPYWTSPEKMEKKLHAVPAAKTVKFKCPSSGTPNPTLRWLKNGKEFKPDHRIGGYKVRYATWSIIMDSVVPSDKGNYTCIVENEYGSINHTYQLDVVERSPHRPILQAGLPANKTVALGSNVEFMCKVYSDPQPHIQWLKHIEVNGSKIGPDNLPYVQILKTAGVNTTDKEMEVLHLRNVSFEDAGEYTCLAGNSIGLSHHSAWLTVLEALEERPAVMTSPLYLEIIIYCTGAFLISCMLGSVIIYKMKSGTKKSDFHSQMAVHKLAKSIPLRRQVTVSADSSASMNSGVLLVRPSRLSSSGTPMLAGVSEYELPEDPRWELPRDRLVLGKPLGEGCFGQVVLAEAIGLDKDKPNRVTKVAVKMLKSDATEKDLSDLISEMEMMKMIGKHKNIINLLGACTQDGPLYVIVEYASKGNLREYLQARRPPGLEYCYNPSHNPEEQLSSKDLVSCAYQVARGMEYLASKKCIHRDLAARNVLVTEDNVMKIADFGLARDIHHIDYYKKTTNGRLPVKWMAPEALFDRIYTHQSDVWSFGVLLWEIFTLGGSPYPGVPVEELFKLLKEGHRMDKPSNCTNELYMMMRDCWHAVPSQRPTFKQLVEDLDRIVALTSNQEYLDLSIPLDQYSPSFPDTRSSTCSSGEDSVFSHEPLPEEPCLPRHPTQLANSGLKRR
Chain of FGFR1c receptor/BKL complex on differentiated mouse 3T3-L1 adipocytes (mouse) (Q99N32 whole entry, chain 2 of 2, further chain): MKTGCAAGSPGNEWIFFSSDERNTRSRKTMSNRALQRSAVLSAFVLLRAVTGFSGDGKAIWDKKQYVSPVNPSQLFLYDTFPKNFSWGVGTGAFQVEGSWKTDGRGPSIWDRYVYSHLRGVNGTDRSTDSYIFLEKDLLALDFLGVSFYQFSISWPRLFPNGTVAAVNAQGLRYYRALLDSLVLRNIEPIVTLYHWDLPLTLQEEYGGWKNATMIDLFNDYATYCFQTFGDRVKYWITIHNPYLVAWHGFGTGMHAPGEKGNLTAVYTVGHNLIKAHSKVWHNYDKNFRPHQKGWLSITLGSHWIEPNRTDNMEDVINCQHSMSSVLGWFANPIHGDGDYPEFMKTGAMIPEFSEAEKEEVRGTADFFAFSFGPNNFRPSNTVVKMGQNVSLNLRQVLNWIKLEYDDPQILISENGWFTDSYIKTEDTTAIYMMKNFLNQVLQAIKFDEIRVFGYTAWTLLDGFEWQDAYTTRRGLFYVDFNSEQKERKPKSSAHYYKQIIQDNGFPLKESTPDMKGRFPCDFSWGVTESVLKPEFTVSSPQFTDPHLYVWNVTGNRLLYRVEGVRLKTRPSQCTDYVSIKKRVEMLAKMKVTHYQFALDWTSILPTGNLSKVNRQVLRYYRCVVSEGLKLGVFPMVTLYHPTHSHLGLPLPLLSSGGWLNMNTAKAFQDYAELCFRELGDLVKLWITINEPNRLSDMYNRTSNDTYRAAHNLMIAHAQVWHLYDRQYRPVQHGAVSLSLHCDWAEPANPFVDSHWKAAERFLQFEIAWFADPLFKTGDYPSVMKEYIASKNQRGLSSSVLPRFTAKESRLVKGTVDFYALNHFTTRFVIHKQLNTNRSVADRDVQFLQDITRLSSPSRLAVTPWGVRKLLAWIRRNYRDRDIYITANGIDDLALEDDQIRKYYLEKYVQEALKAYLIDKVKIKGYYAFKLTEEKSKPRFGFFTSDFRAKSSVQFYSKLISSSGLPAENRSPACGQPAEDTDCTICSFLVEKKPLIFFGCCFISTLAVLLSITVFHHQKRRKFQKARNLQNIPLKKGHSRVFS
Chain of S{Beta-176}-2-aminoethylsulfanyl-Ala[Gln121,Leu168,Cys176]FGF21 (Q9NSA1 other isoform, or with tags, fused parts or gaps limits assumed): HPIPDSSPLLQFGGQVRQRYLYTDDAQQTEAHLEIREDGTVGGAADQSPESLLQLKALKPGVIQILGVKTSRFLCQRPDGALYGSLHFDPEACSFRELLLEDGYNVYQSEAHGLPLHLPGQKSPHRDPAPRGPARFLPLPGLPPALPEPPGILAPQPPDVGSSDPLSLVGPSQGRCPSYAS
Chain of S{Beta-178}-2-aminoethylsulfanyl-Ala[Gln121,Leu168,Cys178]FGF21 (Q9NSA1 other isoform, or with tags, fused parts or gaps limits assumed): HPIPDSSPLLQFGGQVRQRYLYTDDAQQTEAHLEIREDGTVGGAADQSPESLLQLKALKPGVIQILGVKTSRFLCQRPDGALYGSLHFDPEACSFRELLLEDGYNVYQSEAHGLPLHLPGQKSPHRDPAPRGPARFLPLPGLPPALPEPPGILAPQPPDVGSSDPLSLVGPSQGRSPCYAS
Chain of Ala[Gln121,Leu168]FGF21 (Q9NSA1 other isoform, or with tags, fused parts or gaps limits assumed): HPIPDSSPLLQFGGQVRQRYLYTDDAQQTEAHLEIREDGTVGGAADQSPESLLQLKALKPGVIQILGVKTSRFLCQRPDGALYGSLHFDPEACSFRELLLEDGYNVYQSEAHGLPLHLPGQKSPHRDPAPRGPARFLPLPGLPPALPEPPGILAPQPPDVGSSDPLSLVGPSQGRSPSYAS
Chain of S{Beta-179}-2-aminoethylsulfanyl-Ala[Gln121,Leu168,Cys179]FGF21 (Q9NSA1 other isoform, or with tags, fused parts or gaps limits assumed): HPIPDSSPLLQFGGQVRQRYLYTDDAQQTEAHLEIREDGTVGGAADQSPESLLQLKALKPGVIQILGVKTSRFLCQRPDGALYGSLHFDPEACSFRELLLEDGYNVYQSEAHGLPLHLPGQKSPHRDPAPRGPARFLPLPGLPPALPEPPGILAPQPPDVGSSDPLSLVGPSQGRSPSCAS

Substance | Glucose uptake EC50 (nM), 3T3-L1 adipocytes [1] [nM] | Glucose uptake Emax (%), 3T3-L1 adipocytes [1] [%] | EC50 (nM), pERK, HEK293/BKL cells [2] [nM] | EC50 (0.1% HSA) (nM), pERK, HEK293/BKL cells [2] [nM]
Ala[Gln121,Leu168]FGF21 (from UniProt Q9NSA1 29-209) (ligand) | 3.1 | 85 | 2 | 
S{Beta-173}-[2-[2-[[2-[2-[2-[[2-[2-[2-[[(4S)-4-carboxy-4-(15-carboxypentadecanoyl-amino)butanoyl]amino]ethoxy]ethoxy]acetyl]amino]ethoxy]ethoxy]acetyl]amino]-ethylamino]-2-oxoethyl]-Ala[Gln121,Leu168,Cys173]FGF21 (from UniProt Q9NSA1 29-209) (ligand) |  |  | 3 | 4
S{Beta-174}-[2-[2-[[2-[2-[2-[[2-[2-[2-[[(4S)-4-carboxy-4-(13-carboxytridecanoyl-amino)butanoyl]amino]ethoxy]ethoxy]acetyl]amino]ethoxy]ethoxy]acetyl]amino]-ethylamino]-2-oxoethyl]-Ala[Gln121,Leu168,Cys174]FGF21 (from UniProt Q9NSA1 29-209) (ligand) |  |  | 4 | 4
S{Beta-175}-[2-[2-[[2-[2-[2-[[2-[2-[2-[[(4S)-4-carboxy-4-(15-carboxypentadecanoyl-amino)butanoyl]amino]ethoxy]ethoxy]acetyl]amino]ethoxy]ethoxy]acetyl]amino]-ethylamino]-2-oxoethyl]-Ala[Gln121,Leu168,Cys175]FGF21 (from UniProt Q9NSA1 29-209) (ligand) |  |  | 1 | 1
S{Beta-176}-2-aminoethylsulfanyl-Ala[Gln121,Leu168,Cys176]FGF21 (from UniProt Q9NSA1 29-209) (ligand) | 73 | 84 | 227 | 
S{Beta-176}-[2-[2-[[2-[2-[2-[[2-[2-[2-[[(4S)-4-carboxy-4-(15-carboxypentadecanoyl-amino)butanoyl]amino]ethoxy]ethoxy]acetyl]amino]ethoxy]ethoxy]acetyl]amino]-ethylamino]-2-oxoethyl]-Ala[Gln121,Leu168,Cys176]FGF21 (from UniProt Q9NSA1 29-209) (ligand) |  |  | 214 | 373
S{Beta-178}-2-aminoethylsulfanyl-Ala[Gln121,Leu168,Cys178]FGF21 (from UniProt Q9NSA1 29-209) (ligand) | 50 | 69 | 105 | 
S{Beta-179}-2-aminoethylsulfanyl-Ala[Gln121,Leu168,Cys179]FGF21 (from UniProt Q9NSA1 29-209) (ligand) | 25 | 77 | 69 | 
S{Beta-179}-[2-[2-[[2-[2-[2-[[2-[2-[2-[[(4S)-4-carboxy-4-(15-carboxypentadecanoyl-amino)butanoyl]amino]ethoxy]ethoxy]acetyl]amino]ethoxy]ethoxy]acetyl]amino]-ethylamino]-2-oxoethyl]-Ala[Gln121,Leu168,Cys179]FGF21 (from UniProt Q9NSA1 29-209) (ligand) | 107 | 54 | 107 | 134
S{Beta-180}-2-aminoethylsulfanyl-Ala[Gln121,Leu168,Cys180,des181]FGF21 (from UniProt Q9NSA1 29-207) (ligand) | 73 | 72 | 20 | 
S{Beta-180}-2-aminoethylsulfanyl-Ala[Gln121,Leu168,Cys180]FGF21 (from UniProt Q9NSA1 29-209) (ligand) | 2.6 | 102 | 2.3 | 
S{Beta-180}-[2-[2-[[2-[2-[2-[[2-[2-[2-[[(4S)-4-carboxy-4-(11-carboxyundecanoyl-amino)butanoyl]amino]ethoxy]ethoxy]acetyl]amino]ethoxy]ethoxy]acetyl]amino]-ethylamino]-2-oxoethyl]-Ala[Gln121,Leu168,Cys180]FGF21 (from UniProt Q9NSA1 29-209) (ligand) | 2.7 | 87 | 7 | 4
S{Beta-180}-[2-[2-[[2-[2-[2-[[2-[2-[2-[[(4S)-4-carboxy-4-(13-carboxytridecanoyl-amino)butanoyl]amino]ethoxy]ethoxy]acetyl]amino]ethoxy]ethoxy]acetyl]amino]-ethylamino]-2-oxoethyl]-Ala[Gln121,Leu168,Cys180]FGF21 (from UniProt Q9NSA1 29-209) (ligand) | 6.7 | 106 | 6 | 6
S{Beta-180}-[2-[2-[[2-[2-[2-[[2-[2-[2-[[(4S)-4-carboxy-4-(15-carboxypentadecanoyl-amino)butanoyl]amino]ethoxy]ethoxy]acetyl]amino]ethoxy]ethoxy]acetyl]amino]-ethylamino]-2-oxoethyl]-Ala[Gln121,Leu168,Cys180]FGF21 (from UniProt Q9NSA1 29-209) (ligand) | 9.1 | 98 | 4 | 6
S{Beta-180}-[2-[2-[[2-[2-[2-[[2-[2-[2-[[(4S)-4-carboxy-4-(17-carboxyheptadecanoyl-amino)butanoyl]amino]ethoxy]ethoxy]acetyl]amino]ethoxy]ethoxy]acetyl]amino]-ethylamino]-2-oxoethyl]-Ala[Gln121,Leu168,Cys180,des181]FGF21 (from UniProt Q9NSA1 29-207) (ligand) | 8 | 71 | 8 | 20
S{Beta-180}-[2-[2-[[2-[2-[2-[[2-[2-[2-[[(4S)-4-carboxy-4-(17-carboxyheptadecanoyl-amino)butanoyl]amino]ethoxy]ethoxy]acetyl]amino]ethoxy]ethoxy]acetyl]amino]-ethylamino]-2-oxoethyl]-Ala[Gln121,Leu168,Cys180]FGF21 (from UniProt Q9NSA1 29-209) (ligand) | 32 | 109 | 5 | 48
S{Beta-180}-[2-[2-[[2-[2-[2-[[2-[2-[2-[[(4S)-4-carboxy-4-(19-carboxynonadecanoyl-amino)butanoyl]amino]ethoxy]ethoxy]acetyl]amino]ethoxy]ethoxy]acetyl]amino]-ethylamino]-2-oxoethyl]-Ala[Gln121,Leu168,Cys180]FGF21 (from UniProt Q9NSA1 29-209) (ligand) | 24 | 53 | 5 | 133
S{Beta-181}-2-aminoethylsulfanyl-Ala[Gln121,Leu168,Cys181]FGF21 (from UniProt Q9NSA1 29-208) (ligand) | 5 | 74 | 27 | 
S{Beta-181}-[2-[2-[[2-[2-[2-[[2-[2-[2-[[(4S)-4-carboxy-4-(11-carboxyundecanoyl-amino)butanoyl]amino]ethoxy]ethoxy]acetyl]amino]ethoxy]ethoxy]acetyl]amino]-ethylamino]-2-oxoethyl]-Ala[Gln121,Leu168,Cys181]FGF21 (from UniProt Q9NSA1 29-208) (ligand) |  |  | 154 | 137
S{Beta-181}-[2-[2-[[2-[2-[2-[[2-[2-[2-[[(4S)-4-carboxy-4-(13-carboxytridecanoyl-amino)butanoyl]amino]ethoxy]ethoxy]acetyl]amino]ethoxy]ethoxy]acetyl]amino]-ethylamino]-2-oxoethyl]-Ala[Gln121,Leu168,Cys181]FGF21 (from UniProt Q9NSA1 29-208) (ligand) | 7.2 | 55 | 58 | 41
S{Beta-181}-[2-[2-[[2-[2-[2-[[2-[2-[2-[[(4S)-4-carboxy-4-(15-carboxypentadecanoyl-amino)butanoyl]amino]ethoxy]ethoxy]acetyl]amino]ethoxy]ethoxy]acetyl]amino]-ethylamino]-2-oxoethyl]-Ala[Gln121,Leu168,Cys181]FGF21 (from UniProt Q9NSA1 29-208) (ligand) | 31 | 61 | 55 | 72
S{Beta-181}-[2-[2-[[2-[2-[2-[[2-[2-[2-[[(4S)-4-carboxy-4-(17-carboxyheptadecanoyl-amino)butanoyl]amino]ethoxy]ethoxy]acetyl]amino]ethoxy]ethoxy]acetyl]amino]-ethylamino]-2-oxoethyl]-Ala[Gln121,Leu168,Cys181]FGF21 (from UniProt Q9NSA1 29-208) (ligand) | 56 | 73 | 42 | 170
S{Beta-181}-[2-[2-[[2-[2-[2-[[2-[2-[2-[[(4S)-4-carboxy-4-(19-carboxynonadecanoyl-amino)butanoyl]amino]ethoxy]ethoxy]acetyl]amino]ethoxy]ethoxy]acetyl]amino]-ethylamino]-2-oxoethyl]-Ala[Gln121,Leu168,Cys181]FGF21 (from UniProt Q9NSA1 29-208) (ligand) | 410 | 57 | 58 | 434
